# Data from patent US20230111237A1 (CARLSBERG A S, published 2023).
# Where a chain is given by its changes, count along the chain named. In names and notes the source's numbering stands.
# T1: recombinant wild type Hordeum vulgare limit dextrinase (wt HvLD) (Hordeum vulgare)
# T1 chain: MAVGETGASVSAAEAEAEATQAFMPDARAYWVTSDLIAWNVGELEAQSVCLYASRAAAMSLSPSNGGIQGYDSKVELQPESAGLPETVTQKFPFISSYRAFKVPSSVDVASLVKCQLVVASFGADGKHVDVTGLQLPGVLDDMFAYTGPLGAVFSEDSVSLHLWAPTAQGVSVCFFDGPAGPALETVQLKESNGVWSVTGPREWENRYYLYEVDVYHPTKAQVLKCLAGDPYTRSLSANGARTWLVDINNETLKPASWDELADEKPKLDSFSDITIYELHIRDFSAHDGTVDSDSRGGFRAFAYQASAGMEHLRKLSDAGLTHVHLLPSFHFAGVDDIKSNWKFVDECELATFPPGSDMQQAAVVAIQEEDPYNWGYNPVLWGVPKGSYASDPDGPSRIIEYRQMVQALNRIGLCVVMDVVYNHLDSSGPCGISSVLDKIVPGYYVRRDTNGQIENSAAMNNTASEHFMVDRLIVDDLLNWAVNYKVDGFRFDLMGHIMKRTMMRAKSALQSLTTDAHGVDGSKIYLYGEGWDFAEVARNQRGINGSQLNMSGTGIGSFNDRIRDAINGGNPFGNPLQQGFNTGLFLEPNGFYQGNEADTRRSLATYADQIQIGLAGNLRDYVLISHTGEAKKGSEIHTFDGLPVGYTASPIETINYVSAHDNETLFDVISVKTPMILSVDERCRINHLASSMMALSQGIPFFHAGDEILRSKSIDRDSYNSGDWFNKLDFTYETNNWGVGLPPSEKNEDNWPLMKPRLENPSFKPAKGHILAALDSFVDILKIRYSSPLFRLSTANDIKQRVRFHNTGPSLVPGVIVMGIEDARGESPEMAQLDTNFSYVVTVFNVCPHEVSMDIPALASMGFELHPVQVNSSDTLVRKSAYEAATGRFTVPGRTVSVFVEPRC
# B1: wild type Hordeum vulgare limit dextrinase inhibitor (wt HvLDI), recombinant (other)
# chain: TLESVKDECQPGVDFPHNPLATCHTYVIKRVCGRGPSRPMLVKERCCRELAAVPDHCRCEALRILMDGVRTPEGRVVEGRLGDRRDCPREEQRAFAATLVTAAECNLSSVQEPGVRLVLLADG
# B2: HvLDI mutant P60L, recombinant (other)
# chain: B1 chain with P36L
# B3: HvLDI mutant P60S, recombinant (other)
# chain: B1 chain with P36S
# B4: HvLDI mutant V66M, recombinant (other)
# chain: B1 chain with V42M
# B5: HvLDI mutant E68K, recombinant (other)
# chain: B1 chain with E44K
# Target: T1, recombinant wild type Hordeum vulgare …
# Experiment: cell-based or functional assay
row,"IC50 (µM) of inhibition of HvLD activity (PullG6 assay, 1.5 µM HvLD) [µM]",Binder
1,1.56,B1
2,13.2,B2
3,10.1,B3
4,15.3,B4
5,7.1,B5
